US10274499B2, “SH2 domain variants” (THE UNIVERSITY OF WESTERN ONTARIO, priority 2012, dated 2019)
Residue numbers refer to the chain shown, from its start. Names and notes keep the numbering of the source. Each block holds one molecule with its values, some of them ahead of it.

Assays:
[1] = system: seven fluorescein-labeled pTyr-containing peptides; assay: in-solution fluorescence polarization binding assay, set of seven peptides; settings: average over seven peptides, relative to the wild type of the same SH2 domain
Description: (§1) Each peptide was synthesized on the TentaGel amide resin (INTAVIS Inc.) and N-terminally labeled with fluorescein using NHS-fluorescein (Thermo Fisher Scientific). Each of the 13 variant and the wild-type SH2 domain was produced by overexpression in the Escherichia coli BL21(DE3) strain cultured in LB media (EMD Chemicals). Expression was induced by 0.3 mM isopropyl β-D-1-thiogalactopyranoside (IPTG), and the cell culture was incubated for 5 hours at 37° C. The cells were harvested by centrifuge, and broken on ice, in buffer solution containing 20 mM sodium phosphate, 0.1 M NaCl, 20 mM imidazole, 1 mg/ml lysozyme and 1% Triton-X 100, adjusted at pH 7.8. Affinity purification was performed with the Ni-NTA agarose resin (Qiagen Inc.), according to the manufacturer's instruction. The purified material was dialyzed against phosphate-buffered saline (PBS), pH 7.4, at 4° C. overnight. Measurements of fluorescence polarization were conducted by titrating the SH2 domain concentration, while keeping the peptide concentration constant. Kd values were calculated with the GraphPad Prism software, by assuming the one-site binding model (GraphPad Software).
(§2) The determined Kd values of interaction between the 14 SH2 domains (including the wild-type) and seven peptides were listed in FIG. 7(a).
The wild-type and variant Src SH2 domains were expressed in E. coli BL21(DE3) strain grown in the LB media, by inducing protein expression with 0.3 mM IPTG, and incubating the cell culture at 30° C. for six hours. Cells were harvested by centrifuge, and broken on ice in buffer solution containing 20 mM sodium phosphate, 0.1 M NaCl, 20 mM imidazole, 1 mg/ml lysozyme, 1% Triton-X 100, adjusted at pH 7.8. Affinity purification was performed with the Ni-NTA, agarose resin, according to the manufacturer's instruction. […]
Fluorescence polarization assay was conducted to determine Kd values of the interaction between the wild-type or variant Src SH2 domain and seven fluorescein-labeled pTyr-containing peptides (FIG. 9a).

[2] = system: non-phosphorylated fluorescein-GGYGG peptide (SEQ ID NO: 24); assay: fluorescence polarization binding assay, non-phosphorylated GGYGG peptide
Chain of non-phosphorylated fluorescein-GGYGG peptide (SEQ ID NO: 24) (as listed by the source): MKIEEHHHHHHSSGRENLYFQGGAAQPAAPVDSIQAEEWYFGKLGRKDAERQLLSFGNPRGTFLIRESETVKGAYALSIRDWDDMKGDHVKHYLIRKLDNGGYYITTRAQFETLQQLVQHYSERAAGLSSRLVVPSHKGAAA
Description: as §1, §2

EGFR = target: T1, EGFR (Homo sapiens, UniProt P00533); assay: immunoprecipitation of GFP-fused SH2 domains with EGFR in HEK 293 cells; type: cell-based; settings: GFP-fusion expressed in HEK 293 cells, EGF 100 ng/ml, anti-GFP and anti-EGFR antibodies
T1 construct: endogenous in cells; host or cells: HEK 293
Source text: The three variant SH2 domains mentioned in the previous sentence were dubbed as 8V/10A/15L-substituted SH2 domains, or the TrM SH2 domains, in the following descriptions, as well as in FIG. 11 and FIG. 12. The wild-type (Wt) and TrM SH2 domains, subcloned into the pEGFPC2 vector, were expressed in the HEK 293 cells as a GFP-fusion protein. Methods used in this and the following sections are described below.
Anti-GFP rabbit polyclonal antibody was purchased from Sigma-Aldrich. Anti-EGFR rabbit polyclonal antibody was purchased from Millipore. Anti-p44/42 MAPK (Erk1/2) mouse monoclonal antibody, and anti-phospho-p44/42 MAPK (Thr202/Tyr204) mouse monoclonal antibody were purchased from Cell Signaling. HEK 293 cells were grown in Dulbecco's modification of Eagle's medium (DMEM, Sigma-Aldrich) supplemented with 10% fetal bovine serum (FBS, SAFC Biosciences), 50 units/ml penicillin and 50 μg/ml streptomycin (GIBCO Invitrogen Corp.) in a humidified atmosphere of 5% CO2 in air at 37° C. EGF (Invitrogen) at a final concentration of 100 ng/ml was added to the medium at the indicated time point. Transient transfections were carried out with jet-PEI (PolyPlus-Transfection; Illkirch, France) according to manufacturer's instruction.
HEK 293 cells were transfected with the SH2 domain construct subcloned in the pEGFPC2 vector, and incubated in serum-containing full medium for 24 h followed by serum-starvation for 16 h and then EGF (100 ng/ml) treatment for 10 min, pervanadate treatment for 10 min. The whole cell lysates were prepared and subjected to IB analysis to detect phosphorylated Erk and total Erk.
HEK 293 cells were lysed with cold lysis buffer (1% NP-40, 50 mM Tris-HCl pH 7.4, 150 mM NaCl, 2 mM EDTA, 50 mM NaF, 10% Glycerol and protease inhibitor cocktail diluted at 1:1000). After centrifugation at 13,000*g for 15 min, the supernatants were collected. After clearance of the lysate with appropriate pre-immune serum and protein G (Roche), immunoprecipitation (IP) and immunoblotting (IB) were performed. […]

[3] = system: tyrosine-phosphorylated proteins from HeLa cell lysate; assay: GST pulldown assay, pervanadate-treated HeLa cell lysate; type: binding; settings: GST fusion, compared to the Wt SH2 domain, 4G10 immunoblot
Description: The wild-type (Wt) and triple mutant (TrM) Fyn SH2 domains (Ala^139-Gly^249) were respectively subcloned into the pETM30 vector (Dümmler, et al. Microb. Cell Fact. 4, 34 (2005)). The Fyn SH2 domain constructs contain a FLAG tag sequence ([…]) (SEQ ID NO: 27) at the C-terminus. To create the GST control vector, a stop codon was inserted after the GST tag sequence of the original pETM30 vector. The GST and GST-SH2 proteins were expressed in E. coli BL21(DE3). HeLa cells were treated with 50 μM pervanadate for 10 min at 37° C. HeLa cells were lysed on ice in lysis buffer containing 0.5% NP-40, 50 mM HEPES pH 7.4, 1 mM magnesium chloride, 150 mMKCl, and the COMPLETE protease inhibitor cocktail (Roche). The GST pulldown assay was conducted as described (Li et al. J. Biol. Chem. 278, 3852-3859 (2003)).

[4] = target: fluorescein-GGpYGG peptide (SEQ ID NO: 23); assay: fluorescence polarization binding assay, GGpYGG peptide
[5] = system: phosphorylated proteins (ALK) from H370 cell lysate; assay: GST pulldown, H370 cell lysate with ALK activation by mAb46; type: binding, human; settings: GST fusion, compared to the Wt
Chain of phosphorylated proteins (ALK) from H370 cell lysate (Q9UM73 1060-1620 limits assumed): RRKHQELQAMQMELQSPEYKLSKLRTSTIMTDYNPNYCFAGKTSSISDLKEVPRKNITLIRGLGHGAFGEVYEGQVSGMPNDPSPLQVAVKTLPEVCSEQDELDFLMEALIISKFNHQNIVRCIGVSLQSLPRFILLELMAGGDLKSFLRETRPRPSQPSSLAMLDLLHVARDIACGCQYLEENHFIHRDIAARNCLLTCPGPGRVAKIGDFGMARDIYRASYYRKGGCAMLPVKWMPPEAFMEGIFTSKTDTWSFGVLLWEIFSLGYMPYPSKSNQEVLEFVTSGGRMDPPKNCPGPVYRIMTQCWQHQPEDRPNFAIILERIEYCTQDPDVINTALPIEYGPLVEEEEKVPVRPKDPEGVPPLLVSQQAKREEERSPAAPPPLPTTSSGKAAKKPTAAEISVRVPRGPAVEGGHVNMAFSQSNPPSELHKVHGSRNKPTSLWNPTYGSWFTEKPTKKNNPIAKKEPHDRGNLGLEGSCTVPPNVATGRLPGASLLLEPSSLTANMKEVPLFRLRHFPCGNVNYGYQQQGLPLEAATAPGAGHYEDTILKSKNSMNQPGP
Description: The Wt human Src (hSrc) SH2, the TrM hSrc SH2, and Wt Rous sarcoma virus Src (vSrc) SH2 domains were prepared, respectively, as GST tag fusion proteins. The vSrc SH2 domain is almost identical to the hSrc SH2 domain (there are three-residue differences in the SH2 domain region, and the differences are located outside of the target-binding surface). 5 μg of the GST-tagged SH2 domain was incubated with 500 μg of H370 cell lysate treated with or without the ALK activation antibody mAb-46 at room temperature for 30 min. 20 μl of glutathione sepharose beads was then added for another 30 minincubation at room temperature. As a positive control, the anti-pTyr antibody P-Tyr-100 (Cell Signaling, #9411) was used for immunoprecipitation. 4 μl of the P-Tyr-100 antibody was incubated with 500 μg H370 cell lysate treated with or without the ALK activation antibody mAb-46 for 2 hours at 4° C. Next, 20 μl protein G beads was added for another incubation for two hours at 4° C. The glutathione beads or protein G beads were washed with 1×PBS (phosphate buffered saline) three times. The beads were added to 30 μl 2×SDS loading buffer and boiled for 10 min. The samples were resolved on an 8% Bis-Tris SDS-PAGE gel. The gel was applied to Western blotting to transfer the samples onto PVDF membrane (Millipore) and the proteins were probed with the P-Tyr-100 antibody. […]

[6] = system: tyrosine-phosphorylated proteins of U937 cell lysate; assay: Far-Western blotting, pervanadate-treated U937 cell lysate; type: binding, human; settings: GST fusion 3.5 μg/ml
Description: The GST protein and GST-Src SH2 TrM were prepared as 3.5 μg/ml concentration in the TBS buffer (50 mM Tris-HCl pH 7.2, 137 mM NaCl). The cultured U937 cells were treated with or without 50 μM pervanadate in PBS for 10 min at 37° C. The cells were lysed in the buffer (0.5% NP-40, 50 mM HEPES pH 7.4, 1 mM magnesium chloride, 150 mMKCl) with sonication on ice, and supernatant was loaded on an SDS-PAGE gel for separation and following transfer to the PVDF membrane (Millipore). The membrane was blocked with 5% milk in TBS-T (0.5% Tween-20 in TBS) overnight at 4° C., and probed with 3.5 μg/ml GST proteins for 1 hour at room temperature. The membrane was washed with TBS-T, and incubated with anti-GST antibody-HRP (horseradish peroxidase) conjugate (Sigma, #A7340) for 1 hour at room temperature. The signal from HRP was detected as enhanced chemiluminescence on an X-ray film.

A549 cells = assay: cell viability after gold nanoparticle delivery of SH2 protein, EGF treatment, A549; type: cell-based; settings: 100 ng/ml EGF, compared with the Wt SH2 domain
Description: (§3) The hexa-histidine-tagged SrcWt and TrM proteins were purified to homogeneity in 5 mM HEPES buffer (pH 7.6). 1 nM of gold nanoparticle was mixed with 100 nMWt or TrM variant protein. The MCF-7 and A549 cells were starved six hours before treatment. The cells were then treated with 100 ng/ml EGF for 20 hours. The nanoparticle-protein mixture was applied to cells. Cells were trypsinized and stained using 0.4% trypan blue (Sigma-Aldrich) and viable and total cell numbers were counted haemacytometer with the use of a microscope according to manufacturer's instruction.

MCF-7 cells = assay: cell viability after gold nanoparticle delivery of SH2 protein, EGF treatment, MCF-7; type: cell-based; settings: MCF-7 (no EGF receptor), 100 ng/ml EGF
Description: as §3

average affinity increase, Kd[wild-type] divided by Kd[variant] [1]: 293 fold
binding to non-phosphorylated peptide [2]: did not show detectable binding
binding to EGFR (immunoprecipitation) (EGFR): strong binding
B1: T8V/S10A/K15L: variant Fyn SH2 domain: Thr position 8 to Val, Ser position 10 to Ala, Lys position 15 to Leu; SEQ ID NO:17 (protein)
chain: APVDSIQAEEWYFGKLGRKDAERQLLSFGNPRGTFLIRESETVKGAYALSIRDWDDMKGDHVKHYLIRKLDNGGYYITTRAQFETLQQLVQHYSERAAGLCCRLVVPCHKG
modifications: Synthetic construct T8V/S10A/K15L
ability to bind tyrosine-phosphorylated proteins (GST pulldown) [3]: enhanced ability

average affinity increase, Kd[wild-type] divided by Kd[variant] [1]: 86.4 fold
B2: T8I/S10A/K15L: variant Fyn SH2 domain; SEQ ID NO:16 (protein)
chain: B1 chain with V43I
modifications: Synthetic construct T8I/S10A/K15L

binding to EGFR (immunoprecipitation) (EGFR): strong binding
B3: A8V/S10A/K15L: variant human Grb2 SH2 domain, Met55 to Pro158 with A8V, S10A, K15L substitutions; SEQ ID NO: 22 (protein)
chain: MKPHPWFFGKIPRAKAEEMLSKQRHDGAFLIRESESVPGDFALSVKFGNDVQHFLVLRDGAGKYFLWVVKFNSLNELVDYHRSTSVSRNQQIFLRDIEQVPQQP
modifications: Synthetic construct Grb2_triple

average affinity increase, Kd[wild-type] divided by Kd[variant] [1]: 238 fold
Kd [4]: 510 nM
binding to EGFR (immunoprecipitation) (EGFR): strong binding
B4: T8V/C10A/K15L: variant human Src SH2 domain, position 8 Val, position 10 Ala, position 15 Leu; SEQ ID NO:21 (protein)
chain: DSIQAEEWYFGKITRRESERLLLNAENPRGTFLVRESETVKGAYALSVSDFDNAKGLNVKHYLIRKLDSGGFYITSRTQFNSLQQLVAYYSKHADGLCHRLTTVCPTSK
modifications: Synthetic construct T8V/C10A/K15L
capture of phosphorylated proteins from H370 cell lysate upon stimulation [5]: substantially larger amount
detection of tyrosine-phosphorylated proteins by Far-Western blotting [6]: broad detection of tyrosine-phosphorylated proteins
cell viability upon EGF treatment (A549 cells): reduced cell variability
cell viability upon EGF stimulation (MCF-7 cells): did not significantly affect cell variability
